Measured values from the supplement of paper PMC10567573.

B1: KCNA3 (parent)
chain: YQSGGRIRRPVNVPIDIFSEEIRF
B2: HDAC6 (parent)
chain: DLMETTQYMNEGELRVLADTYDSV

Variants of: B1
Assay: protein stability index of a GFP-peptide fusion (GPS, HEK-293T) (PSI 1-6); higher = more stable
Settings: c terminus: a fixed tail appended
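Further: lentivirally expressed fusions sorted by FACS into six bins by GFP to DsRed ratio, PSI derived from sequencing read proportions per bin multiplied by bin number.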

| Variant | protein stability index |
| --- | --- |
| YQSGGRCRRPVNVPIDIFSEEIRF | 2.38 |
| YQSGGRVRRPVNVPIDIFSEEIRF | 2.4 |
| YQSGGRERRPVNVPIDIFSEEIRF | 2.17 |
| YQSGGRDRRPVNVPIDIFSEEIRF | 2.92 |
| YQSGGRHRRPVNVPIDIFSEEIRF | 1.57 |
| YQSGGRNRRPVNVPIDIFSEEIRF | 1.73 |
| YQSGGRSRRPVNVPIDIFSEEIRF | 2.38 |
| YQSGGRARRPVNVPIDIFSEEIRF | 2.83 |
| YQSGGRYRRPVNVPIDIFSEEIRF | 2.04 |
| YQSGGRQRRPVNVPIDIFSEEIRF | 2.52 |
| YQSGGRTRRPVNVPIDIFSEEIRF | 1.91 |
| YQSGGRLRRPVNVPIDIFSEEIRF | 1.69 |
| YQSGGRWRRPVNVPIDIFSEEIRF | 2.77 |
| YQSGGRFRRPVNVPIDIFSEEIRF | 1.62 |
| YQSGGRPRRPVNVPIDIFSEEIRF | 2.51 |
| YQSGGRRRRPVNVPIDIFSEEIRF | 1.86 |
| YQSGGRKRRPVNVPIDIFSEEIRF | 3.34 |
| YQSGGRMRRPVNVPIDIFSEEIRF | 2.44 |
| YQSGGRGRRPVNVPIDIFSEEIRF | 2.41 |
| YQSGKRIRRPVNVPIDIFSEEIRF | 2.2 |
| YQSGDRIRRPVNVPIDIFSEEIRF | 2.02 |
| YQSGRRIRRPVNVPIDIFSEEIRF | 2.08 |
| YQSGYRIRRPVNVPIDIFSEEIRF | 1.49 |
| YQSGWRIRRPVNVPIDIFSEEIRF | 3.41 |

| Variant | protein stability index |
| --- | --- |
| YQSGTRIRRPVNVPIDIFSEEIRF | 2.54 |
| YQSGPRIRRPVNVPIDIFSEEIRF | 2.32 |
| YQSGHRIRRPVNVPIDIFSEEIRF | 2.9 |
| YQSGFRIRRPVNVPIDIFSEEIRF | 1.68 |
| YQSGNRIRRPVNVPIDIFSEEIRF | 2 |
| YQSGARIRRPVNVPIDIFSEEIRF | 2.38 |
| YQSGERIRRPVNVPIDIFSEEIRF | 2.58 |
| YQSGLRIRRPVNVPIDIFSEEIRF | 2.09 |
| YQSGQRIRRPVNVPIDIFSEEIRF | 2.5 |
| YQSGSRIRRPVNVPIDIFSEEIRF | 2.37 |
| YQSGCRIRRPVNVPIDIFSEEIRF | 1.91 |
| YQSGMRIRRPVNVPIDIFSEEIRF | 1.37 |
| YQSGIRIRRPVNVPIDIFSEEIRF | 1.94 |
| YQSGVRIRRPVNVPIDIFSEEIRF | 2.05 |
| YQSNGRIRRPVNVPIDIFSEEIRF | 1.92 |
| YQSKGRIRRPVNVPIDIFSEEIRF | 2.82 |
| YQSCGRIRRPVNVPIDIFSEEIRF | 1.93 |
| YQSEGRIRRPVNVPIDIFSEEIRF | 2.73 |
| YQSSGRIRRPVNVPIDIFSEEIRF | 3.01 |
| YQSIGRIRRPVNVPIDIFSEEIRF | 2.06 |
| YQSQGRIRRPVNVPIDIFSEEIRF | 2.37 |
| YQSTGRIRRPVNVPIDIFSEEIRF | 2.28 |
| YQSAGRIRRPVNVPIDIFSEEIRF | 1.69 |
| YQSHGRIRRPVNVPIDIFSEEIRF | 1.97 |

| Variant | protein stability index |
| --- | --- |
| YQSFGRIRRPVNVPIDIFSEEIRF | 1.83 |
| YQSWGRIRRPVNVPIDIFSEEIRF | 2 |
| YQSMGRIRRPVNVPIDIFSEEIRF | 2.1 |
| YQSPGRIRRPVNVPIDIFSEEIRF | 2.21 |
| YQSRGRIRRPVNVPIDIFSEEIRF | 2.15 |
| YQSLGRIRRPVNVPIDIFSEEIRF | 2.31 |
| YQSYGRIRRPVNVPIDIFSEEIRF | 1.79 |
| YQSDGRIRRPVNVPIDIFSEEIRF | 2.07 |
| YQSVGRIRRPVNVPIDIFSEEIRF | 2.05 |
| AQSGGRIRRPVNVPIDIFSEEIRF | 3.31 |
| DQSGGRIRRPVNVPIDIFSEEIRF | 3.1 |
| SQSGGRIRRPVNVPIDIFSEEIRF | 3.58 |
| IQSGGRIRRPVNVPIDIFSEEIRF | 2.53 |
| TQSGGRIRRPVNVPIDIFSEEIRF | 2.55 |
| NQSGGRIRRPVNVPIDIFSEEIRF | 2.89 |
| RQSGGRIRRPVNVPIDIFSEEIRF | 2.67 |
| MQSGGRIRRPVNVPIDIFSEEIRF | 2.42 |
| VQSGGRIRRPVNVPIDIFSEEIRF | 2.58 |
| EQSGGRIRRPVNVPIDIFSEEIRF | 2.74 |
| PQSGGRIRRPVNVPIDIFSEEIRF | 3.43 |
| KQSGGRIRRPVNVPIDIFSEEIRF | 2.77 |
| QQSGGRIRRPVNVPIDIFSEEIRF | 2.76 |
| GQSGGRIRRPVNVPIDIFSEEIRF | 2.83 |
| LQSGGRIRRPVNVPIDIFSEEIRF | 2.08 |

| Variant | protein stability index |
| --- | --- |
| WQSGGRIRRPVNVPIDIFSEEIRF | 2.48 |
| FQSGGRIRRPVNVPIDIFSEEIRF | 1.83 |
| CQSGGRIRRPVNVPIDIFSEEIRF | 2.49 |
| HQSGGRIRRPVNVPIDIFSEEIRF | 2.98 |
| YQWGGRIRRPVNVPIDIFSEEIRF | 2.27 |
| YQEGGRIRRPVNVPIDIFSEEIRF | 2.93 |
| YQDGGRIRRPVNVPIDIFSEEIRF | 2.41 |
| YQNGGRIRRPVNVPIDIFSEEIRF | 2.23 |
| YQAGGRIRRPVNVPIDIFSEEIRF | 2.82 |
| YQVGGRIRRPVNVPIDIFSEEIRF | 2.01 |
| YQCGGRIRRPVNVPIDIFSEEIRF | 1.46 |
| YQHGGRIRRPVNVPIDIFSEEIRF | 2.84 |
| YQLGGRIRRPVNVPIDIFSEEIRF | 2.23 |
| YQQGGRIRRPVNVPIDIFSEEIRF | 2.44 |
| YQPGGRIRRPVNVPIDIFSEEIRF | 2.22 |
| YQRGGRIRRPVNVPIDIFSEEIRF | 2.59 |
| YQFGGRIRRPVNVPIDIFSEEIRF | 1.64 |
| YQMGGRIRRPVNVPIDIFSEEIRF | 1.56 |
| YQYGGRIRRPVNVPIDIFSEEIRF | 2.21 |
| YQTGGRIRRPVNVPIDIFSEEIRF | 2.06 |
| YQKGGRIRRPVNVPIDIFSEEIRF | 2.24 |
| YQGGGRIRRPVNVPIDIFSEEIRF | 1.81 |
| YQIGGRIRRPVNVPIDIFSEEIRF | 1.58 |
| YMSGGRIRRPVNVPIDIFSEEIRF | 2.04 |

| Variant | protein stability index |
| --- | --- |
| YSSGGRIRRPVNVPIDIFSEEIRF | 1.96 |
| YKSGGRIRRPVNVPIDIFSEEIRF | 1.92 |
| YDSGGRIRRPVNVPIDIFSEEIRF | 2.74 |
| YASGGRIRRPVNVPIDIFSEEIRF | 2.35 |
| YGSGGRIRRPVNVPIDIFSEEIRF | 2.7 |
| YFSGGRIRRPVNVPIDIFSEEIRF | 1.79 |
| YTSGGRIRRPVNVPIDIFSEEIRF | 2.47 |
| YWSGGRIRRPVNVPIDIFSEEIRF | 1.87 |
| YVSGGRIRRPVNVPIDIFSEEIRF | 1.94 |
| YLSGGRIRRPVNVPIDIFSEEIRF | 2.41 |
| YCSGGRIRRPVNVPIDIFSEEIRF | 2.19 |
| YRSGGRIRRPVNVPIDIFSEEIRF | 2.07 |
| YNSGGRIRRPVNVPIDIFSEEIRF | 2.52 |
| YHSGGRIRRPVNVPIDIFSEEIRF | 3.93 |
| YESGGRIRRPVNVPIDIFSEEIRF | 2.33 |
| YPSGGRIRRPVNVPIDIFSEEIRF | 2.07 |
| YISGGRIRRPVNVPIDIFSEEIRF | 1.22 |
| YYSGGRIRRPVNVPIDIFSEEIRF | 2.46 |
| YQSGGRICRPVNVPIDIFSEEIRF | 2.03 |
| YQSGGRIFRPVNVPIDIFSEEIRF | 2.03 |
| YQSGGRIHRPVNVPIDIFSEEIRF | 4.19 |
| YQSGGRIARPVNVPIDIFSEEIRF | 2.57 |
| YQSGGRIIRPVNVPIDIFSEEIRF | 3.3 |
| YQSGGRIDRPVNVPIDIFSEEIRF | 2.13 |

| Variant | protein stability index |
| --- | --- |
| YQSGGRIERPVNVPIDIFSEEIRF | 2.3 |
| YQSGGTIRRPVNVPIDIFSEEIRF | 1.76 |
| YQSGGQIRRPVNVPIDIFSEEIRF | 2.79 |
| YQSGGLIRRPVNVPIDIFSEEIRF | 1.31 |
| YQSGGKIRRPVNVPIDIFSEEIRF | 1.59 |
| YQSGGHIRRPVNVPIDIFSEEIRF | 2.23 |
| YQSGGIIRRPVNVPIDIFSEEIRF | 1.9 |
| YQSGGDIRRPVNVPIDIFSEEIRF | 2.15 |
| YQSGGGIRRPVNVPIDIFSEEIRF | 1.85 |
| YQSGGAIRRPVNVPIDIFSEEIRF | 1.9 |
| YQSGGSIRRPVNVPIDIFSEEIRF | 2.08 |
| YQSGGWIRRPVNVPIDIFSEEIRF | 1.86 |
| YQSGGYIRRPVNVPIDIFSEEIRF | 1.86 |
| YQSGGEIRRPVNVPIDIFSEEIRF | 2.34 |
| YQSGGCIRRPVNVPIDIFSEEIRF | 1.85 |
| YQSGGPIRRPVNVPIDIFSEEIRF | 1.91 |
| YQSGGNIRRPVNVPIDIFSEEIRF | 2.11 |
| YQSGGVIRRPVNVPIDIFSEEIRF | 1.95 |
| YQSGGFIRRPVNVPIDIFSEEIRF | 1.65 |

Variants of: B2
Assay: as above
Settings: c terminus: a fixed tail appended

| Variant | protein stability index |
| --- | --- |
| DLMETTQYMNEGELRVLADTYDMV | 2.33 |
| DLMETTQYMNEGELRVLADTYDPV | 1.46 |
| DLMETTQYMNEGELRVLADTYDRV | 2.14 |
| DLMETTQYMNEGELRVLADTYDIV | 1.86 |
| DLMETTQYMNEGELRVLADTYDVV | 1.63 |
| DLMETTQYMNEGELRVLADTYDWV | 3.46 |
| DLMETTQYMNEGELRVLADTYDYV | 1.58 |
| DLMETTQYMNEGELRVLADTYDTV | 2.05 |
| DLMETTQYMNEGELRVLADTYDCV | 2.48 |
| DLMETTQYMNEGELRVLADTYDQV | 1.24 |
| DLMETTQYMNEGELRVLADTYDHV | 2.37 |
| DLMETTQYMNEGELRVLADTYDDV | 1.92 |
| DLMETTQYMNEGELRVLADTYDEV | 1.97 |
| DLMETTQYMNEGELRVLADTYDGV | 2.72 |
| DLMETTQYMNEGELRVLADTYDKV | 2.03 |
| DLMETTQYMNEGELRVLADTYDLV | 1.94 |
| DLMETTQYMNEGELRVLADTYDNV | 2.66 |
| DLMETTQYMNEGELRVLADTYDSN | 2.77 |
| DLMETTQYMNEGELRVLADTYDSM | 2.24 |
| DLMETTQYMNEGELRVLADTYDSF | 1.92 |
| DLMETTQYMNEGELRVLADTYDSC | 1.42 |
| DLMETTQYMNEGELRVLADTYDSA | 1.73 |
| DLMETTQYMNEGELRVLADTYDST | 1.63 |
| DLMETTQYMNEGELRVLADTYDSR | 1.86 |
| DLMETTQYMNEGELRVLADTYDSH | 2.78 |

| Variant | protein stability index |
| --- | --- |
| DLMETTQYMNEGELRVLADTYDSI | 2.34 |
| DLMETTQYMNEGELRVLADTYDSP | 2.11 |
| DLMETTQYMNEGELRVLADTYDSG | 2.1 |
| DLMETTQYMNEGELRVLADTYDSD | 2.41 |
| DLMETTQYMNEGELRVLADTYDSK | 1.77 |
| DLMETTQYMNEGELRVLADTYDSW | 1.66 |
| DLMETTQYMNEGELRVLADTYDSQ | 1.84 |
| DLMETTQYMNEGELRVLADTYDSS | 1.56 |
| DLMETTQYMNEGELRVLADTYDSL | 2.11 |
| DLMETTQYMNEGELRVLADTYDSY | 1.49 |
| DLMETTQYMNEGELRVLADTYDSE | 2.01 |
| DLMETTQYMNEGELRVLADTYNSV | 1.48 |
| DLMETTQYMNEGELRVLADTYQSV | 2.29 |
| DLMETTQYMNEGELRVLADTYVSV | 1.74 |
| DLMETTQYMNEGELRVLADTYLSV | 2.14 |
| DLMETTQYMNEGELRVLADTYHSV | 2 |
| DLMETTQYMNEGELRVLADTYPSV | 1.92 |
| DLMETTQYMNEGELRVLADTYISV | 2.16 |
| DLMETTQYMNEGELRVLADTYYSV | 2.7 |
| DLMETTQYMNEGELRVLADTYSSV | 1.55 |
| DLMETTQYMNEGELRVLADTYRSV | 2.91 |
| DLMETTQYMNEGELRVLADTYKSV | 1.75 |
| DLMETTQYMNEGELRVLADTYTSV | 1.65 |
| DLMETTQYMNEGELRVLADTYGSV | 1.76 |
